# B1: library; numbered along this chain (parent)
# chain: MAAAAAAAAEQQSSNGPVKKSMREKAVERRSVNKEHNSNFKAGYIPIDEDRLHKTGLRGRKGNLAICVIILLFILAVINLIITLVIWAVIRIGPNGCDSMEFHESGLLRFKQVSDMGVIHPLYKSTVGGRRNENLVITGNNQPIVFQQGTTKLSVENNKTSITSDIGMQFFDPRTQNILFSTDYETHEFHLPSGVKSLNVQKASTERITSNATSDLNIKVDGRAIVRGNEGVFIMGKTIEFHMGGNMELKAENSIILNGSVMVSTTRLPSSSSGDQLGSGDWVRYKLCMCADGTLFKVQVTSQNMGCQISDNPCGNTH
# Variants of: B1
# Assay: SGCB cell-surface expression functional score (HA stain, bin4 vs bin1, normalised to synonymous) (log10 ratio); higher = more cell-surface SGCB (functional)
# How it was run: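 Human beta-sarcoglycan, tagged with HA and fused to YFP, was built into codon-saturation libraries and delivered by lentivirus at MOI <0.1 into HEK293 cells that stably express alpha-, gamma- and delta-sarcoglycan. After 72 hours, YFP-positive cells were sorted and grown for 5–7 days, then stained on ice with Alexa Fluor 647 anti-HA, fixed, sorted into four 5% intensity bins and amplicon-sequenced. Each variant's functional score is the log ratio of its frequency in the highest bin to that in the lowest bin, taken as the median across codons and transductions. Transductions were done in duplicate, and synonymous variants were scaled per section to mean 0, SD 0.5.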
row,Variant,SGCB cell-surface expression functional score (log10)
1,MAAAAAAAAEQQSSNGPVKKSMREKAVERRSVNKEHNSNFKAGYIPIDEDRLHKTGLRGRKGNLAICVIILLFILAVINLIITLVIWAVIRIGPNGCDSMEFHESGLLRFKQVSDMGVIHPLYKSTVGGRRNENLVITGNNQPIVFQQGTTKLSVENNKTSITNDIGMQFFDPRTQNILFSTDYETHEFHLPSGVKSLNVQKASTERITSNATSDLNIKVDGRAIVRGNEGVFIMGKTIEFHMGGNMELKAENSIILNGSVMVSTTRLPSSSSGDQLGSGDWVRYKLCMCADGTLFKVQVTSQNMGCQISDNPCGNTH [S164N],-0.99
2,MAAAAAAAAEQQSSNGPVKKSMREKAVERRSVNKEHNSNFKAGYIPIDEDRLHKTGLRGRKGNLAICVIILLFILAVINLIITLVIWAVIRIGPNGCDSMEFHESGLLRFKQVSDMGVIHPLYKSTVGGRRNENLVITGNNQPIVFQQGTTKLSVENNKTSITQDIGMQFFDPRTQNILFSTDYETHEFHLPSGVKSLNVQKASTERITSNATSDLNIKVDGRAIVRGNEGVFIMGKTIEFHMGGNMELKAENSIILNGSVMVSTTRLPSSSSGDQLGSGDWVRYKLCMCADGTLFKVQVTSQNMGCQISDNPCGNTH [S164Q],-0.96
3,MAAAAAAAAEQQSSNGPVKKSMREKAVERRSVNKEHNSNFKAGYIPIDEDRLHKTGLRGRKGNLAICVIILLFILAVINLIITLVIWAVIRIGPNGCDSMEFHESGLLRFKQVSDMGVIHPLYKSTVGGRRNENLVITGNNQPIVFQQGTTKLSVENNKTSITLDIGMQFFDPRTQNILFSTDYETHEFHLPSGVKSLNVQKASTERITSNATSDLNIKVDGRAIVRGNEGVFIMGKTIEFHMGGNMELKAENSIILNGSVMVSTTRLPSSSSGDQLGSGDWVRYKLCMCADGTLFKVQVTSQNMGCQISDNPCGNTH [S164L],-1.91
4,MAAAAAAAAEQQSSNGPVKKSMREKAVERRSVNKEHNSNFKAGYIPIDEDRLHKTGLRGRKGNLAICVIILLFILAVINLIITLVIWAVIRIGPNGCDSMEFHESGLLRFKQVSDMGVIHPLYKSTVGGRRNENLVITGNNQPIVFQQGTTKLSVENNKTSITGDIGMQFFDPRTQNILFSTDYETHEFHLPSGVKSLNVQKASTERITSNATSDLNIKVDGRAIVRGNEGVFIMGKTIEFHMGGNMELKAENSIILNGSVMVSTTRLPSSSSGDQLGSGDWVRYKLCMCADGTLFKVQVTSQNMGCQISDNPCGNTH [S164G],-0.13
5,MAAAAAAAAEQQSSNGPVKKSMREKAVERRSVNKEHNSNFKAGYIPIDEDRLHKTGLRGRKGNLAICVIILLFILAVINLIITLVIWAVIRIGPNGCDSMEFHESGLLRFKQVSDMGVIHPLYKSTVGGRRNENLVITGNNQPIVFQQGTTKLSVENNKTSITFDIGMQFFDPRTQNILFSTDYETHEFHLPSGVKSLNVQKASTERITSNATSDLNIKVDGRAIVRGNEGVFIMGKTIEFHMGGNMELKAENSIILNGSVMVSTTRLPSSSSGDQLGSGDWVRYKLCMCADGTLFKVQVTSQNMGCQISDNPCGNTH [S164F],-1.08
6,MAAAAAAAAEQQSSNGPVKKSMREKAVERRSVNKEHNSNFKAGYIPIDEDRLHKTGLRGRKGNLAICVIILLFILAVINLIITLVIWAVIRIGPNGCDSMEFHESGLLRFKQVSDMGVIHPLYKSTVGGRRNENLVITGNNQPIVFQQGTTKLSVENNKTSITKDIGMQFFDPRTQNILFSTDYETHEFHLPSGVKSLNVQKASTERITSNATSDLNIKVDGRAIVRGNEGVFIMGKTIEFHMGGNMELKAENSIILNGSVMVSTTRLPSSSSGDQLGSGDWVRYKLCMCADGTLFKVQVTSQNMGCQISDNPCGNTH [S164K],-0.97
7,MAAAAAAAAEQQSSNGPVKKSMREKAVERRSVNKEHNSNFKAGYIPIDEDRLHKTGLRGRKGNLAICVIILLFILAVINLIITLVIWAVIRIGPNGCDSMEFHESGLLRFKQVSDMGVIHPLYKSTVGGRRNENLVITGNNQPIVFQQGTTKLSVENNKTSITHDIGMQFFDPRTQNILFSTDYETHEFHLPSGVKSLNVQKASTERITSNATSDLNIKVDGRAIVRGNEGVFIMGKTIEFHMGGNMELKAENSIILNGSVMVSTTRLPSSSSGDQLGSGDWVRYKLCMCADGTLFKVQVTSQNMGCQISDNPCGNTH [S164H],-1.56
8,MAAAAAAAAEQQSSNGPVKKSMREKAVERRSVNKEHNSNFKAGYIPIDEDRLHKTGLRGRKGNLAICVIILLFILAVINLIITLVIWAVIRIGPNGCDSMEFHESGLLRFKQVSDMGVIHPLYKSTVGGRRNENLVITGNNQPIVFQQGTTKLSVENNKTSITPDIGMQFFDPRTQNILFSTDYETHEFHLPSGVKSLNVQKASTERITSNATSDLNIKVDGRAIVRGNEGVFIMGKTIEFHMGGNMELKAENSIILNGSVMVSTTRLPSSSSGDQLGSGDWVRYKLCMCADGTLFKVQVTSQNMGCQISDNPCGNTH [S164P],-1.87
9,MAAAAAAAAEQQSSNGPVKKSMREKAVERRSVNKEHNSNFKAGYIPIDEDRLHKTGLRGRKGNLAICVIILLFILAVINLIITLVIWAVIRIGPNGCDSMEFHESGLLRFKQVSDMGVIHPLYKSTVGGRRNENLVITGNNQPIVFQQGTTKLSVENNKTSITMDIGMQFFDPRTQNILFSTDYETHEFHLPSGVKSLNVQKASTERITSNATSDLNIKVDGRAIVRGNEGVFIMGKTIEFHMGGNMELKAENSIILNGSVMVSTTRLPSSSSGDQLGSGDWVRYKLCMCADGTLFKVQVTSQNMGCQISDNPCGNTH [S164M],-2.05
10,MAAAAAAAAEQQSSNGPVKKSMREKAVERRSVNKEHNSNFKAGYIPIDEDRLHKTGLRGRKGNLAICVIILLFILAVINLIITLVIWAVIRIGPNGCDSMEFHESGLLRFKQVSDMGVIHPLYKSTVGGRRNENLVITGNNQPIVFQQGTTKLSVENNKTSITIDIGMQFFDPRTQNILFSTDYETHEFHLPSGVKSLNVQKASTERITSNATSDLNIKVDGRAIVRGNEGVFIMGKTIEFHMGGNMELKAENSIILNGSVMVSTTRLPSSSSGDQLGSGDWVRYKLCMCADGTLFKVQVTSQNMGCQISDNPCGNTH [S164I],-1.26

# From the supplement of paper PMC10266784
